Measurements taken from paper PMC3630089, “ATP-Dependent Chromatin Remodeling by Cockayne Syndrome Protein B and NAP1-Like Histone Chaperones Is Required for Efficient Transcription-Coupled DNA Repair” (PLoS Genetics, 2013).

Target: T1, CSBΔN1 (CSB lacking amino acids 245-365), purified from SF9 cells (human, UniProt Q03468 1-1493, removing amino acids 245–365)
T1 construct: CSB with the N1 region (amino acids 245-365) removed; probably Flag-tagged like the other SF9 CSB proteins; source: SF9 cells, purified
Assay: pull-down; GST-NAP1L1 immobilized on glutathione beads, mixed with purified CSB or CSBΔN1; Western blot
Details: both partners purified

T1 sequence (Q03468 other isoform, or with tags, fused parts or gaps with the stated changes): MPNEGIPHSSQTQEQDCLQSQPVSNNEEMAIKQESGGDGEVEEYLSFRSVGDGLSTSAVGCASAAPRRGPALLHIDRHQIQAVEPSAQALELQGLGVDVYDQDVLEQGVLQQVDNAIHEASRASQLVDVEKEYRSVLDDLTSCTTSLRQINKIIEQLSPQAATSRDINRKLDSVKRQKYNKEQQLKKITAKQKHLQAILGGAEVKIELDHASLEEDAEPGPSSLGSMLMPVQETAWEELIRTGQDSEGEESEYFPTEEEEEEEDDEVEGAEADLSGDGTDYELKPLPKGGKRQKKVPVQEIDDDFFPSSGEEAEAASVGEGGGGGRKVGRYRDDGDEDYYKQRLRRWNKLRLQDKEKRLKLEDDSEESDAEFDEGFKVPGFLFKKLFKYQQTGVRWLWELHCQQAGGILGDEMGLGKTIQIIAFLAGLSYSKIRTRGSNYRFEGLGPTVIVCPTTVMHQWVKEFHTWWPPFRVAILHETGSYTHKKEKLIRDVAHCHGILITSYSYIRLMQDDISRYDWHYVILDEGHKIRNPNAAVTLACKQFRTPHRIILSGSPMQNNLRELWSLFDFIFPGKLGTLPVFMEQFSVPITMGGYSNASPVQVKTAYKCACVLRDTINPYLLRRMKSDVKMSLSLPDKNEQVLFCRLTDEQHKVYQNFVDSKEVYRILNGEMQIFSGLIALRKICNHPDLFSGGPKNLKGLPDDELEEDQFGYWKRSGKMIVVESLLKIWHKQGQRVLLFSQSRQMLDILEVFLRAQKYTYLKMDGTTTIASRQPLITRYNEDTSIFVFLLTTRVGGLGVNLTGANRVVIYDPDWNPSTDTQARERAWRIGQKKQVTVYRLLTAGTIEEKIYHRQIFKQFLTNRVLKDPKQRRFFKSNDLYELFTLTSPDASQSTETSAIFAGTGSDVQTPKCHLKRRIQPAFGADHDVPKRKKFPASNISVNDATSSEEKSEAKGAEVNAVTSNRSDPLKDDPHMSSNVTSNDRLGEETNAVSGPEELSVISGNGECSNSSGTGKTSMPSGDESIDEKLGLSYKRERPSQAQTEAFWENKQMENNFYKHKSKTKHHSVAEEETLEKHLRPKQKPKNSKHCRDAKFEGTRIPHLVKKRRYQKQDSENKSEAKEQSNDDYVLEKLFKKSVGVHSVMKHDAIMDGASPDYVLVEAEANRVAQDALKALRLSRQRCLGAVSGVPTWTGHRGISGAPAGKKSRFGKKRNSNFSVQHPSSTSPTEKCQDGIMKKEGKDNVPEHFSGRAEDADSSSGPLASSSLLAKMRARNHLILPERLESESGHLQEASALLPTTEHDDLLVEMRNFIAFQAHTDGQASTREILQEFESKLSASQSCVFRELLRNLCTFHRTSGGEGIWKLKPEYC

binding result: binds
B1: GST-NAP1L1 fusion protein (natural protein, human, UniProt P55209 1-391, looked up)
chain: MADIDNKEQSELDQDLDDVEEVEEEETGEETKLKARQLTVQMMQNPQILAALQERLDGLVETPTGYIESLPRVVKRRVNALKNLQVKCAQIEAKFYEEVHDLERKYAVLYQPLFDKRFEIINAIYEPTEEECEWKPDEEDEISEELKEKAKIEDEKKDEEKEDPKGIPEFWLTVFKNVDLLSDMVQEHDEPILKHLKDIKVKFSDAGQPMSFVLEFHFEPNEYFTNEVLTKTYRMRSEPDDSDPFSFDGPEIMGCTGCQIDWKKGKNVTLKTIKKKQKHKGRGTVRTVTKTVSNDSFFNFFAPPEVPESGDLDDDAEAILAADFEIGHFLRERIIPRSVLYFTGEAIEDDDDDYDEEGEEADEEGEEEGDEENDPDYDPKKDQNPAECKQQ
notes: human NAP1-like histone chaperone NAP1L1; source: bacterially expressed, immobilized on glutathione beads
